According to paper PMC12775996:

What was measured:
human platelet factor 4 = test: ELISA-qPCR; settings: PF4-coated wells; N = 6, two independent repeats; bar labelled Ad5-ΔfX; parent: est. 1.7e5; read off a plot
[1] = target: human platelet factor 4 (human)
[2] = target: adenovirus type 5 vector particles (wild-type capsid) (human adenovirus type 5); test: SPR; MP-SPR 220A, CMD 2D sensor, viruses amine-coupled, 22°C; PF4 at 7 μg/mL (900 nM) in pure PBS without passivating agents, 600 s injection, then flush

| Substance | VP uptake in A549 cells (internalized Ad genomes by qPCR, 3 hpi, 20 vpc) after incubation with 10 μg/mL PF4 [1] [fold] | other results |
| --- | --- | --- |
| adenovirus type 5 vector particles (wild-type capsid) (from UniProt P06496) T425A |  | response (number of bound VPs) (human platelet factor 4): 290000 |
| adenovirus type 5 vector particles (wild-type capsid), P06496 1-107 | 3 |  |
| adenovirus type 11 vector particles (complex) | 1.6 |  |
| adenovirus type 13 vector particles (complex) | 1.6 |  |
| adenovirus type 69 vector particles (complex) | 3 |  |
| human platelet factor 4 (natural protein) |  | Kd [2]: 1050 nM |
